Assay results: patent US20250034227A1

B1: scTCR CL-21753 (TCR)
chain: EDVEQSSFLSVREGDSAVINCTYTDASSTYFYWYKQEPGAGLQLLTYIFSNMDMKQDQRLTVLLNKKDKHLSLRIADTQTGDSAIYFCAVKDNARLMFGDGTQLVVKPGGGGSGGGGSGGGGSGGGGSGGGGSAVISQKPSRDIVQRGNSVTIQCQVDRPVTMMFWYRQQPGQSLTLIATAYDEGSATYESGFVIDKFPISRPNLTFSTLTVSNMSPEDSSIYLCSVLGAYGYTFGSGTRLTVV
B2: scTCR R76P1E1S with matured CDRb1 RPVTM (TCR)
chain: EDVEQSSFLSVREGDSAVINCTYTDSSSTYFYWYKQEPGAGLQLLTYIFSNMDMKQDQRLTVLLNKKDKHLSLRIADTQTGDSAIYFCAVKDNARLMFGDGTQLVVKPGGGGSGGGGSGGGGSGGGGSGGGGSGAVISQKPSRDIVQRGNSVTIQCQVDRPVTMMFWYRQQPGQSLTLIATANQGSEATYESGFVIDKFPISRPNLTFSTLTVSNMSPEDSSIYLCSVLGAYGYTFGSGTRLTVV

Columns and labels:
[1] = biological target: HLA-A*02 tetramers with the 9 similar peptides (SimPeps, SEQ ID NOs: 59-67); assay: yeast display, 9 similar peptides, 10 nM HLA-A*02 tetramer
[2] = biological target: HLA-A*02 tetramers with the 9 similar peptides (SimPeps, SEQ ID NOs: 59-67); assay: yeast display, flow cytometry, SimPep tetramer mix, 25 nM each

Row | Binder | similar peptide binding, % positive cells [1] [%] | yeast cells stained positive [2] [%]
1 | B1 | 0 | 
2 | B2 |  | 0
